Experimental data as given in patent publication US20260049138A1 (Chugai, published 2026).
Where a chain is given by its changes, count along the chain named. In names and notes the source's numbering stands. Each block holds one binder with its values, some of them ahead of it.

Target: T1, CD3ε homodimer protein (human, UniProt P07766 23-126, limits assumed, sulfo-tag or biotin label in the ECL assays; amine-coupled to the chip in SPR)
T1 construct: also called human CD3ε homodimer protein; CD3 (CD3ε)
Experiment: SPR Biacore T200; CD3ε homodimer on CM4 chip;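 further: Single-residue variant antibodies injected as analyte over CD3ε homodimer immobilized by amine coupling, run at 25 °C in HBS-EP+ buffer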

T1 sequence (P07766 23-126 limits assumed): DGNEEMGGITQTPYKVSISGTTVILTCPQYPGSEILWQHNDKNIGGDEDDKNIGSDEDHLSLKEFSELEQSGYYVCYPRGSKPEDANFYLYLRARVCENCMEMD

ratio of amounts bound Z=Y/X (altered form / CE115HA000): 0.28
B2: CE115HA000 K52S one-arm antibody (antibody, human IgG1, kappa, L234A L235A, N297A, name in Kabat numbering)
heavy: QVQLVESGGGVVQPGRSLRLSCAASGFTFSNAWMHWVRQAPGKGLEWVAQISAKSNNYATYYAESVKGRFTISRDDSKNSLYLQMNSLKTEDTAVYYCRYVHYGAYYGVDAWGQGTTVTVSSASTKGPSVFPLAPSSKSTSGGTAALGCLVKDYFPEPVTVSWNSGALTSGVHTFPAVLQSSGLYSLSSVVTVPSSSLGTQTYICNVNHKPSNTKVDKKVEPKSCDKTHTCPPCPAPEAAGGPSVFLFPPKPKDTLMISRTPEVTCVVVDVSHEDPEVKFNWYVDGVEVHNAKTKPREEQYASTYRVVSVLTVLHQDWLNGKEYKCKVSNKALPAPIEKTISKAKGQPREPQVYTLPPSRCELTKNQVSLSCAVKGFYPSDIAVEWESNGQPENNYKTTPPVLDSDGSFFLVSKLTVDKSRWQQGNVFSCSVMHEALHNHYTQKSLSLSPDYKDDDDK
chain: EPKSSDKTHTCPPCPAPELLGGPSVFLFPPKPKDTLMISRTPEVTCVVVDVSHEDPEVKFNWYVDGVEVHNAKTKPREEQYNSTYRVVSVLTVLHQDWLNGKEYKCKVSNKALPAPIEKTISKAKGQPREPQVCTLPPSRDELTKNQVSLWCLVKGFYPSDIAVEWESNGQPENNYKTTPPVLDSDGSFFLYSKLTVDKSRWQQGNVFSCSVMHEALHNRYTQKSLSLSP
light: DIVMTQSPLSLPVTPGEPASISCRSSQSLVHSNRNTYLHWYQQKPGQAPRLLIYKVSNRFSGVPDRFSGSGSGTDFTLKISRVEAEDVGVYYCGQGTQVPYTFGQGTKLEIKRTVAAPSVFIFPPSDEQLKSGTASVVCLLNNFYPREAKVQWKVDNALQSGNSQESVTEQDSKDSTYSLSSTLTLSKADYEKHKVYACEVTHQGLSSPVTKSFNRGEC

ratio of amounts bound Z=Y/X (altered form / CE115HA000): 0.34
B3: CE115HA000 K52N one-arm antibody (antibody, human IgG1, kappa, L234A L235A, N297A, name in Kabat numbering)
heavy: B2 heavy with S52N
chain: B2 chain
light: B2 light

ratio of amounts bound Z=Y/X (altered form / CE115HA000): 0.9
B4: CE115HA000 K43E one-arm antibody (antibody, human IgG1, kappa, L234A L235A, N297A, name in Kabat numbering)
heavy: B2 heavy with K43E, S52K
chain: B2 chain
light: B2 light

ratio of amounts bound Z=Y/X (altered form / CE115HA000): 0.35
B5: CE115HA000 H96K one-arm antibody (antibody, human IgG1, kappa, L234A L235A, N297A, name in Kabat numbering)
heavy: B2 heavy with S52K, H102K
chain: B2 chain
light: B2 light

ratio of amounts bound Z=Y/X (altered form / CE115HA000): 0.22
B9: CE115HA000 K52H one-arm antibody (antibody, human IgG1, kappa, L234A L235A, N297A, name in Kabat numbering)
heavy: B2 heavy with S52H
chain: B2 chain
light: B2 light

ratio of amounts bound Z=Y/X (altered form / CE115HA000): 0.22
B11: CE115HA000 K52W one-arm antibody (antibody, human IgG1, kappa, L234A L235A, N297A, name in Kabat numbering)
heavy: B2 heavy with S52W
chain: B2 chain
light: B2 light

ratio of amounts bound Z=Y/X (altered form / CE115HA000): 0.29
B12: CE115HA000 I51D one-arm antibody (antibody, human IgG1, kappa, L234A L235A, N297A, name in Kabat numbering)
heavy: B2 heavy with I51D, S52K
chain: B2 chain
light: B2 light

ratio of amounts bound Z=Y/X (altered form / CE115HA000): 0.22
B16: CE115HA000 H35V one-arm antibody (antibody, human IgG1, kappa, L234A L235A, N297A, name in Kabat numbering)
heavy: B2 heavy with H35V, S52K
chain: B2 chain
light: B2 light

ratio of amounts bound Z=Y/X (altered form / CE115HA000): 0.25
B19: CE115HA000 K52D one-arm antibody (antibody, human IgG1, kappa, L234A L235A, N297A, name in Kabat numbering)
heavy: B2 heavy with S52D
chain: B2 chain
light: B2 light

ratio of amounts bound Z=Y/X (altered form / CE115HA000): 0.43
B23: CE115HA000 H96G one-arm antibody (antibody, human IgG1, kappa, L234A L235A, N297A, name in Kabat numbering)
heavy: B2 heavy with S52K, H102G
chain: B2 chain
light: B2 light

ratio of amounts bound Z=Y/X (altered form / CE115HA000): 1.11
B25: CE115HA000 K52bR one-arm antibody (antibody, human IgG1, kappa, L234A L235A, N297A, name in Kabat numbering)
heavy: B2 heavy with S52K, K54R
chain: B2 chain
light: B2 light

ratio of amounts bound Z=Y/X (altered form / CE115HA000): 0.61
B26: CE115HA000 K52bL one-arm antibody (antibody, human IgG1, kappa, L234A L235A, N297A, name in Kabat numbering)
heavy: B2 heavy with S52K, K54L
chain: B2 chain
light: B2 light

ratio of amounts bound Z=Y/X (altered form / CE115HA000): 0.55
B27: CE115HA000 I51E one-arm antibody (antibody, human IgG1, kappa, L234A L235A, N297A, name in Kabat numbering)
heavy: B2 heavy with I51E, S52K
chain: B2 chain
light: B2 light

ratio of amounts bound Z=Y/X (altered form / CE115HA000): 0.27
B28: CE115HA000 K52bN one-arm antibody (antibody, human IgG1, kappa, L234A L235A, N297A, name in Kabat numbering)
heavy: B2 heavy with S52K, K54N
chain: B2 chain
light: B2 light

ratio of amounts bound Z=Y/X (altered form / CE115HA000): 0.12
B29: CE115HA000 H96P one-arm antibody (antibody, human IgG1, kappa, L234A L235A, N297A, name in Kabat numbering)
heavy: B2 heavy with S52K, H102P
chain: B2 chain
light: B2 light

ratio of amounts bound Z=Y/X (altered form / CE115HA000): 0.99
B30: CE115HA000 K43Q one-arm antibody (antibody, human IgG1, kappa, L234A L235A, N297A, name in Kabat numbering)
heavy: B2 heavy with K43Q, S52K
chain: B2 chain
light: B2 light

ratio of amounts bound Z=Y/X (altered form / CE115HA000): 0.67
B32: CE115HA000 K52bA one-arm antibody (antibody, human IgG1, kappa, L234A L235A, N297A, name in Kabat numbering)
heavy: B2 heavy with S52K, K54A
chain: B2 chain
light: B2 light

Second part, the binder before the results:

B1: CE115HA000 H35T one-arm antibody (antibody, human IgG1, kappa, L234A L235A, N297A, name in Kabat numbering)
heavy: B2 heavy with H35T, S52K
chain: B2 chain
light: B2 light
ratio of amounts bound Z=Y/X (altered form / CE115HA000): 0.26

B6: CE115HA000 H96Y one-arm antibody (antibody, human IgG1, kappa, L234A L235A, N297A, name in Kabat numbering)
heavy: B2 heavy with S52K, H102Y
chain: B2 chain
light: B2 light
ratio of amounts bound Z=Y/X (altered form / CE115HA000): 0.17

B7: CE115HA000 K52bQ one-arm antibody (antibody, human IgG1, kappa, L234A L235A, N297A, name in Kabat numbering)
heavy: B2 heavy with S52K, K54Q
chain: B2 chain
light: B2 light
ratio of amounts bound Z=Y/X (altered form / CE115HA000): 0.6

B8: CE115HA000 H96R one-arm antibody (antibody, human IgG1, kappa, L234A L235A, N297A, name in Kabat numbering)
heavy: B2 heavy with S52K, H102R
chain: B2 chain
light: B2 light
ratio of amounts bound Z=Y/X (altered form / CE115HA000): 0.46

B10: CE115HA000 K52bD one-arm antibody (antibody, human IgG1, kappa, L234A L235A, N297A, name in Kabat numbering)
heavy: B2 heavy with S52K, K54D
chain: B2 chain
light: B2 light
ratio of amounts bound Z=Y/X (altered form / CE115HA000): 0.27

B13: CE115HA000 K52F one-arm antibody (antibody, human IgG1, kappa, L234A L235A, N297A, name in Kabat numbering)
heavy: B2 heavy with S52F
chain: B2 chain
light: B2 light
ratio of amounts bound Z=Y/X (altered form / CE115HA000): 0.17

B14: CE115HA000 K52I one-arm antibody (antibody, human IgG1, kappa, L234A L235A, N297A, name in Kabat numbering)
heavy: B2 heavy with S52I
chain: B2 chain
light: B2 light
ratio of amounts bound Z=Y/X (altered form / CE115HA000): 0.33

B15: CE115HA000 K52R one-arm antibody (antibody, human IgG1, kappa, L234A L235A, N297A, name in Kabat numbering)
heavy: B2 heavy with S52R
chain: B2 chain
light: B2 light
ratio of amounts bound Z=Y/X (altered form / CE115HA000): 0.91

B17: CE115HA000 H96S one-arm antibody (antibody, human IgG1, kappa, L234A L235A, N297A, name in Kabat numbering)
heavy: B2 heavy with S52K, H102S
chain: B2 chain
light: B2 light
ratio of amounts bound Z=Y/X (altered form / CE115HA000): 0.44

B18: CE115HA000 H96Q one-arm antibody (antibody, human IgG1, kappa, L234A L235A, N297A, name in Kabat numbering)
heavy: B2 heavy with S52K, H102Q
chain: B2 chain
light: B2 light
ratio of amounts bound Z=Y/X (altered form / CE115HA000): 0.42

B20: CE115HA000 H35Y one-arm antibody (antibody, human IgG1, kappa, L234A L235A, N297A, name in Kabat numbering)
heavy: B2 heavy with H35Y, S52K
chain: B2 chain
light: B2 light
ratio of amounts bound Z=Y/X (altered form / CE115HA000): 0.16

B21: CE115HA000 H35W one-arm antibody (antibody, human IgG1, kappa, L234A L235A, N297A, name in Kabat numbering)
heavy: B2 heavy with H35W, S52K
chain: B2 chain
light: B2 light
ratio of amounts bound Z=Y/X (altered form / CE115HA000): 0.22

B22: CE115HA000 H96L one-arm antibody (antibody, human IgG1, kappa, L234A L235A, N297A, name in Kabat numbering)
heavy: B2 heavy with S52K, H102L
chain: B2 chain
light: B2 light
ratio of amounts bound Z=Y/X (altered form / CE115HA000): 0.14

B24: CE115HA000 K52Y one-arm antibody (antibody, human IgG1, kappa, L234A L235A, N297A, name in Kabat numbering)
heavy: B2 heavy with S52Y
chain: B2 chain
light: B2 light
ratio of amounts bound Z=Y/X (altered form / CE115HA000): 0.18

B31: CE115HA000 K52E one-arm antibody (antibody, human IgG1, kappa, L234A L235A, N297A, name in Kabat numbering)
heavy: B2 heavy with S52E
chain: B2 chain
light: B2 light
ratio of amounts bound Z=Y/X (altered form / CE115HA000): 0.26
